Test results taken from publication PMC4405695 (2015).

Molecular target: GST-Rab6A Q72L (UniProt P20340 1-208, Q72L)
Assay: GTPγS-loaded Rab6A

Chain of GST-Rab6A Q72L (P20340 whole entry Q72L): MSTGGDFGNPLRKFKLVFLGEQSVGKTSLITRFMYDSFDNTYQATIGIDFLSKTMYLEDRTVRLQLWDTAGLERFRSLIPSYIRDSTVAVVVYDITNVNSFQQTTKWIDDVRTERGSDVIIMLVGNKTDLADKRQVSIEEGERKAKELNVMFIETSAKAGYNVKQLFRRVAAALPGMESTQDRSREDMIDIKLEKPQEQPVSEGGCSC

Kd: 170 nM
B1: KIF1C-355-His (domain or fragment)
chain: MAGASVKVAVRVRPFNARETSQDAKCVVSMQGNTTSIINPKQSKDAPKSFTFDYSYWSHTSTEDPQFASQQQVYRDIGEEMLLHAFEGYNVCIFAYGQTGAGKSYTMMGRQEPGQQGIVPQLCEDLFSRVSENQSAQLSYSVEVSYMEIYCERVRDLLNPKSRGSLRVREHPILGPYVQDLSKLAVTSYADIADLMDCGNKARTVAATNMNETSSRSHAVFTIVFTQRCHDQLTGLDSEKVSKISLVDLAGSERADSSGARGMRLKEGANINKSLTTLGKVISALADMQSKKRKSDFIPYRDSVLTWLLKENLGGNSRTAMIAALSPADINYEETLSTLRYADRTKQIRNTVSVN
